Here are results for six molecules from paper PMC7137648, “Molecular and Cellular Interactions of Scavenger Receptor SR-F1 With Complement C1q Provide Insights Into Its Role in the Clearance of Apoptotic Cells” (Frontiers in Immunology, 2020).

Broadly, the koff is the rate constant with which the complex falls apart. The term kon denotes a measure of how fast the partners come together.

The chains are these.
B1: recombinant human calreticulin (CRT) (natural protein, UniProt P27797 18-417, looked up)
chain: EPAVYFKEQFLDGDGWTSRWIESKHKSDFGKFVLSSGKFYGDEEKDKGLQTSQDARFYALSASFEPFSNKGQTLVVQFTVKHEQNIDCGGGYVKLFPNSLDQTDMHGDSEYNIMFGPDICGPGTKKVHVIFNYKGKNVLINKDIRCKDDEFTHLYTLIVRPDNTYEVKIDNSQVESGSLEDDWDFLPPKKIKDPDASKPEDWDERAKIDDPTDSKPEDWDKPEHIPDPDAKKPEDWDEEMDGEWEPPVIQNPEYKGEWKPRQIDNPDYKGTWIHPEIDNPEYSPDPSIYAYDNFGVLGLDLWQVKSGTIFDNFLITNDEAYAEEFGNETWGVTKAAEKQMKDKQDEEQRLKEEEEDKKRKEEEEAEDKEDDEDKDEDEEDEEDKEEDEEEDVPGQAKDEL
notes: calreticulin, human, recombinant; MW = 49,431 g/mol used for quantification; In the endocytosis assay the protein was labelled with Alexa Fluor 568 succinimidyl ester; also called rCRT; AF568-rCRT
B4: SR-F1(20-421), recombinant soluble SR-F1 ectodomain (domain or fragment, human)
chain: SELDPKGQHVCVASSPSAELQCCAGWRQKDQECTIPICEGPDACQKDEVCVKPGLCRCKPGFFGAHCSSRCPGQYWGPDCRESCPCHPHGQCEPATGACQCQADRWGARCEFPCACGPHGRCDPATGVCHCEPGWWSSTCRRPCQCNTAAARCEQATGACVCKPGWWGRRCSFRCNCHGSPCEQDSGRCACRPGWWGPECQQQCECVRGRCSAASGECTCPPGFRGARCELPCPAGSHGVQCAHSCGRCKHNEPCSPDTGSCESCEPGWNGTQCQQPCLPGTFGESCEQQCPHCRHGEACEPDTGHCQRCDPGWLGPRCEDPCPTGTFGEDCGSTCPTCVQGSCDTVTGDCVCSAGYWGPSCNASCPAGFHGNNCSVPCECPEGLCHPVSGSCQPGSGSRDTLIK
modifications: N-linked glycans at Asn 289, 382 and 393
notes: scavenger receptor class F member 1 (SR-F1, SREC-I, SCARF1), human, extracellular domain with EGF-like repeats 1-10; Mass 49.1 kDa by MALDI-TOF (polypeptide 44.0 kDa plus N-glycans); also called SR-F1 extracellular domain; not shown: His8, C-terminal, kept

Holding throughout (details): both partners purified
The target in assay [1] is B4. The assay is described as follows: SPR; CRT injected at five increasing concentrations (single cycle kinetics) over covalently immobilized SR-F1(20-421) (1,845 RU) in TBS-Ca-P at 30 μl/min, 25°C; global fit, two-state reaction model; apparent KD. In general terms: In SPR one partner is held on a chip, and binding of the other changes the refractive index at the surface.

The target in assay [2] is B4. The assay is described as follows: SPR; reverse configuration: soluble SR-F1(20-421) over immobilized CRT (3,320 RU); apparent KD; data not shown.
Assay [3] deals with T1, complement protein C1q (human, UniProt P02745 23-245; P02746 28-253; P02747 29-245).
T1 construct: complement C1q A-chain, human; C1q is 18 polypeptide chains assembled into 6 triple helices of A-chain, B-chain and C-chain (460 kDa); complement C1q B-chain, human; complement C1q C-chain, human; also called whole C1q; serum C1q; source: purified from human serum; copies: 6 + 6 + 6
T1 sequence (P02745 23-245, chain 1 of 3): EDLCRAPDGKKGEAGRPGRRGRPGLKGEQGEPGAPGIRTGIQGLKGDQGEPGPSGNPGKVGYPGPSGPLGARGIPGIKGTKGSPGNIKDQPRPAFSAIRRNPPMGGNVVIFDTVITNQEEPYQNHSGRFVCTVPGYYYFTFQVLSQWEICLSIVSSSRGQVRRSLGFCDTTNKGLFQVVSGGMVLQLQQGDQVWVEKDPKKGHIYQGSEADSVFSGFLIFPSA
T1 sequence (P02746 28-253, chain 2 of 3): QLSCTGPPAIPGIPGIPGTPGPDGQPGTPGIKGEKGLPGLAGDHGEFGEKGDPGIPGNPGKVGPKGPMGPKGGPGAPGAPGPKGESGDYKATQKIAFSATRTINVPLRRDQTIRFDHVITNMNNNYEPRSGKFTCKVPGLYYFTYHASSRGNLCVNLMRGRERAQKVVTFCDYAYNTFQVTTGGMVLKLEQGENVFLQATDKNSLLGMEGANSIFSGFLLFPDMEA
T1 sequence (P02747 29-245, chain 3 of 3): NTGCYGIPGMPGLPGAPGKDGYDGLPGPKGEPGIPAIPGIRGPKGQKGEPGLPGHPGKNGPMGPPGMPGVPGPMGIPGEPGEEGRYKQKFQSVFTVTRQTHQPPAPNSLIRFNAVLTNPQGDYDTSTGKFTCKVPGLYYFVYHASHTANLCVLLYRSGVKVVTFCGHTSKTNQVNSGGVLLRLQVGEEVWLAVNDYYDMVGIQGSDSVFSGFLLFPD
The assay is described as follows: SPR; SR-F1(20-421), SR-F1(20-353) or SR-F1(20-221) injected at five increasing concentrations (multiple cycle kinetics) over covalently immobilized C1q (about 16,000 RU, CM5, amine coupling), BSA reference surface, TBS-Ca-P pH 7.4 (2 mM CaCl2), 20 μl/min, 25°C; global fit, 1:1 Langmuir model; apparent KD.

Assay [4] addresses B1. The assay is described as follows: SPR; SR-F1(20-353) and SR-F1(20-221) fragments with CRT (Figure S7); which partner was immobilised is not told in the text shown.
The target in assay [5] is T1, complement protein C1q. Nature of the assay: SPR; N-glycosylation site mutants of SR-F1(20-421) with C1q (Figures S5A-C), n = 2; which partner was immobilised is not told in the text shown; apparent affinity.

Regarding B1, the Kd in assay [1] was 345 ± 8 nM; in assay [2], 770 nM.

B2: SR-F1(20-353) (domain or fragment, human)
chain: SELDPKGQHVCVASSPSAELQCCAGWRQKDQECTIPICEGPDACQKDEVCVKPGLCRCKPGFFGAHCSSRCPGQYWGPDCRESCPCHPHGQCEPATGACQCQADRWGARCEFPCACGPHGRCDPATGVCHCEPGWWSSTCRRPCQCNTAAARCEQATGACVCKPGWWGRRCSFRCNCHGSPCEQDSGRCACRPGWWGPECQQQCECVRGRCSAASGECTCPPGFRGARCELPCPAGSHGVQCAHSCGRCKHNEPCSPDTGSCESCEPGWNGTQCQQPCLPGTFGESCEQQCPHCRHGEACEPDTGHCQRCDPGWLGPRCEDPCPTGTFGEDCGSLIK
modifications: N-linked glycan at Asn 289
notes: SR-F1 (SCARF1), human, EGF-like repeats 1-8; kept here by the cloning as described; The Leu-Ile-Lys and 8 His tail is printed for the parent plasmid only; not shown: His8, C-terminal, kept
With B2, in assay [3], the Kd was determined as 32.4 nM; the koff worked out at 0.00209 s⁻¹; the on-rate constant (kon) was found to be 70000 M⁻¹ s⁻¹; the “t1/2 (half-life of the complex, ln2/kd)” value was 5.52 min. In addition, in assay [4], the binding result is listed as “binds”.

B3: SR-F1(20-221) (domain or fragment, human)
chain: SELDPKGQHVCVASSPSAELQCCAGWRQKDQECTIPICEGPDACQKDEVCVKPGLCRCKPGFFGAHCSSRCPGQYWGPDCRESCPCHPHGQCEPATGACQCQADRWGARCEFPCACGPHGRCDPATGVCHCEPGWWSSTCRRPCQCNTAAARCEQATGACVCKPGWWGRRCSFRCNCHGSPCEQDSGRCACRPGWWGPECQQLIK
notes: SR-F1 (SCARF1), human, EGF-like repeats 1-5, lacks EGF-like modules 6 to 10 and the three N-glycosylation sites; construct encodes the 221 first residues, named 20-221 as secreted protein; kept here by the cloning as described; The Leu-Ile-Lys and 8 His tail is printed for the parent plasmid only; also called SR-F1(1-221); SR-F(20-221); not shown: His8, C-terminal, kept
On to B3, for which, in assay [3], the Kd stood at 17.7 nM; the koff amounted to 0.00303 s⁻¹; the kon was 185000 M⁻¹ s⁻¹; the “t1/2 (half-life of the complex, ln2/kd)” value was found to be 3.82 min. Also, the binding result in assay [4] is listed as “binds”.
Consider B4, for which, in assay [3], the Kd is 186 nM; the koff came to 0.00126 s⁻¹; the on-rate constant (kon) is 6840 M⁻¹ s⁻¹; the “t1/2 (half-life of the complex, ln2/kd)” value is 9.17 min.

B5: SR-F1(20-421) N393Q (domain or fragment, human)
chain: SELDPKGQHVCVASSPSAELQCCAGWRQKDQECTIPICEGPDACQKDEVCVKPGLCRCKPGFFGAHCSSRCPGQYWGPDCRESCPCHPHGQCEPATGACQCQADRWGARCEFPCACGPHGRCDPATGVCHCEPGWWSSTCRRPCQCNTAAARCEQATGACVCKPGWWGRRCSFRCNCHGSPCEQDSGRCACRPGWWGPECQQQCECVRGRCSAASGECTCPPGFRGARCELPCPAGSHGVQCAHSCGRCKHNEPCSPDTGSCESCEPGWNGTQCQQPCLPGTFGESCEQQCPHCRHGEACEPDTGHCQRCDPGWLGPRCEDPCPTGTFGEDCGSTCPTCVQGSCDTVTGDCVCSAGYWGPSCNASCPAGFHGNQCSVPCECPEGLCHPVSGSCQPGSGSRDTLIK
modifications: N-linked glycans on the two remaining sites (Asn 289, Asn 382)
notes: SR-F1 (SCARF1), human, ectodomain as m1 with Asn 393 replaced by Gln; also called SR-F1 N393Q; N393Q mutant
For B5, the Kd in assay [5] was 589 ± 20 nM.

B6: SR-F1(20-421) N382Q (domain or fragment, human)
chain: SELDPKGQHVCVASSPSAELQCCAGWRQKDQECTIPICEGPDACQKDEVCVKPGLCRCKPGFFGAHCSSRCPGQYWGPDCRESCPCHPHGQCEPATGACQCQADRWGARCEFPCACGPHGRCDPATGVCHCEPGWWSSTCRRPCQCNTAAARCEQATGACVCKPGWWGRRCSFRCNCHGSPCEQDSGRCACRPGWWGPECQQQCECVRGRCSAASGECTCPPGFRGARCELPCPAGSHGVQCAHSCGRCKHNEPCSPDTGSCESCEPGWNGTQCQQPCLPGTFGESCEQQCPHCRHGEACEPDTGHCQRCDPGWLGPRCEDPCPTGTFGEDCGSTCPTCVQGSCDTVTGDCVCSAGYWGPSCQASCPAGFHGNNCSVPCECPEGLCHPVSGSCQPGSGSRDTLIK
modifications: N-linked glycans on the two remaining sites (Asn 289, Asn 393)
notes: SR-F1 (SCARF1), human, ectodomain as m1 with Asn 382 replaced by Gln; also called SR-F1 N382Q; N382Q mutant
In the case of B6, in assay [5], the Kd worked out at 604 nM.
